Each block holds one binder with its values, some of them ahead of it.
Tests used:
Assay in all cases: cell-based or functional assay
ADAMTS4 = biological target: T1, ADAMTS4 (human, UniProt O75173 213-685, limits assumed)
T1 sequence (looked up): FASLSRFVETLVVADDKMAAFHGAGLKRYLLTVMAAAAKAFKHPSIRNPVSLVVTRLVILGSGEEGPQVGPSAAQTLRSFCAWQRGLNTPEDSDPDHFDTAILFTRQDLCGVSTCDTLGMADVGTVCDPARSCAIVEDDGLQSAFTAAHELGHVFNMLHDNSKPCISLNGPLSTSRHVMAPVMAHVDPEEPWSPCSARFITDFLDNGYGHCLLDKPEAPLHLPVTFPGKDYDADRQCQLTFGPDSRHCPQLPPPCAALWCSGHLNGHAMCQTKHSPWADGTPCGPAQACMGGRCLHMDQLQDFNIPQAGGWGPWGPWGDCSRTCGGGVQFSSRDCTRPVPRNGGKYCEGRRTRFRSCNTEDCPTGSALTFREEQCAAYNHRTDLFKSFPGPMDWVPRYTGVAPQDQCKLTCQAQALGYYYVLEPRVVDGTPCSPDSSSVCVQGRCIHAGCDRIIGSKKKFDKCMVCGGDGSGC

ADAMTS5 = biological target: T2, ADAMTS5 (human, UniProt Q9UNA0 262-622, limits assumed)
T2 sequence (looked up): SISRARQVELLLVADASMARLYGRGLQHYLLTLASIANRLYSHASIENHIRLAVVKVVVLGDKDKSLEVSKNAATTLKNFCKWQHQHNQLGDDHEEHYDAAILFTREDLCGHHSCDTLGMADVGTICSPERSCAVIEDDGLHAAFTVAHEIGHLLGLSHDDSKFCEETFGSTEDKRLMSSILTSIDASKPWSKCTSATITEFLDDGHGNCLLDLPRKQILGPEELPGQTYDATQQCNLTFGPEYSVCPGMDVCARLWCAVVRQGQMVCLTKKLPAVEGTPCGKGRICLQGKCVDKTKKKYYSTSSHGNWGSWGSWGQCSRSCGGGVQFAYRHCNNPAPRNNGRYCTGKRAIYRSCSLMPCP

MMP13 = MMP13 (human, UniProt P45452 104-471, limits assumed)

Protease Inhibition (% of WT) (ADAMTS4): 115 % of WT
Protease Inhibition (% of WT) (ADAMTS5): 92 % of WT
Protease Inhibition (% of WT) (MMP13): 27 % of WT
B1: Variant A2M, bait region SEQ ID NO 113 (other)
chain: SVSGKPQYMVLVPSLLHTETTEKGCVLLSYLNETVTVSASLESVRGNRSLFTDLEAENDVLHCVAFAVPKSSSNEEVMFLTVQVKGPTQEFKKRTTVMVKNEDSLVFVQTDKSIYKPGQTVKFRVVSMDENFHPLNELIPLVYIQDPKGNRIAQWQSFQLEGGLKQFSFPLSSEPFQGSYKVVVQKKSGGRTEHPFTVEEFVLPKFEVQVTVPKIITILEEEMNVSVCGLYTYGKPVPGHVTVSICRKYSDASDCHGEDSQAFCEKFSGQLNSHGCFYQQVKTKVFQLKRKEYEMKLHTEAQIQEEGTVVELTGRQSSEITRTITKLSFVKVDSHFRQGIPFFGQVRLVDGKGVPIPNKVIFIRGNEANYYSNATTDEHGLVQFSINTTNVMGTSLTVRVNYKDRSPCYGYQWVSEEHEEAHHTAYLVFSPSKSFVHLEPMSHELPCGHTQTVQAHYILNGGTLLGLKKLSFYYLIMAKGGIVRTGTHGLLVKQEDMKGHFSISIPVKSDIAPVARLLIYAVLPTGDVIGDSAKYDVENCLANKVDLSFSPSQSLPASHAHLRVTAAPQSVCALRAVDQSVLLMKPDAELSASSVYNLLPEKDLTGFPGPLNDQDDEDCINRHNVYINGITYTPVSSTNEKDMYSFLEDMGLKAFTNSKIRKPKMCPQLEEGEARGSTAQEAGEGPKEEEGLGSSELEGRGSPVSQELGQRKLRKYFPETWIWDLVVVNSAGVAEVGVTVPDTITEWKAGAFCLSEDAGLGISSTASLRAFQPFFVELTMPYSVIRGEAFTLKATVLNYLPKCIRVSVQLEASPAFLAVPVEKEQAPHCICANGRQTVSWAVTPKSLGNVNFTVSAEALESQELCGTEVPSVPEHGRKDTVIKPLLVEPEGLEKETTFNSLLCPSGGEVSEELSLKLPPNVVEESARASVSVLGDILGSAMQNTQNLLQMPYGCGEQNMVLFAPNIYVLDYLNETQQLTPEIKSKAIGYLNTGYQRQLNYKHYDGSYSTFGERYGRNQGNTWLTAFVLKTFAQARAYIFIDEAHITQALIWLSQRQKDNGCFRSSGSLLNNAIKGGVEDEVTLSAYITIALLEIPLTVTHPVVRNALFCLESAWKTAQEGDHGSHVYTKALLAYAFALAGNQDKRKEVLKSLNEEAVKKDNSVHWERPQKPKAPVGHFYEPQAPSAEVEMTSYVLLAYLTAQPAPTSEDLTSATNIVKWITKQQNAQGGFSSTQDTVVALHALSKYGAATFTRTGKAAQVTIQSSGTFSSKFQVDNNNRLLLQQVSLPELPGEYSMKVTGEGCVYLQTSLKYNILPEKEEFPFALGVQTLPQTCDEPKAHTSFQISLSVSYTGSRSASNMAIVDVKMVSGFIPLKPTVKMLERSNHVSRTEVSSNHVLIYLDKVSNQTLSLFFTVLQDVPVRDLKPAIVKVYDYYETDEFAIAEYNAPCSKDLGNADYKDDDDKGASHHHHHH

Protease Inhibition (% of WT) (ADAMTS4): 108 % of WT
Protease Inhibition (% of WT) (ADAMTS5): 199 % of WT
Protease Inhibition (% of WT) (MMP13): 56 % of WT
B2: Variant A2M, bait region SEQ ID NO 112 (other)
chain: SVSGKPQYMVLVPSLLHTETTEKGCVLLSYLNETVTVSASLESVRGNRSLFTDLEAENDVLHCVAFAVPKSSSNEEVMFLTVQVKGPTQEFKKRTTVMVKNEDSLVFVQTDKSIYKPGQTVKFRVVSMDENFHPLNELIPLVYIQDPKGNRIAQWQSFQLEGGLKQFSFPLSSEPFQGSYKVVVQKKSGGRTEHPFTVEEFVLPKFEVQVTVPKIITILEEEMNVSVCGLYTYGKPVPGHVTVSICRKYSDASDCHGEDSQAFCEKFSGQLNSHGCFYQQVKTKVFQLKRKEYEMKLHTEAQIQEEGTVVELTGRQSSEITRTITKLSFVKVDSHFRQGIPFFGQVRLVDGKGVPIPNKVIFIRGNEANYYSNATTDEHGLVQFSINTTNVMGTSLTVRVNYKDRSPCYGYQWVSEEHEEAHHTAYLVFSPSKSFVHLEPMSHELPCGHTQTVQAHYILNGGTLLGLKKLSFYYLIMAKGGIVRTGTHGLLVKQEDMKGHFSISIPVKSDIAPVARLLIYAVLPTGDVIGDSAKYDVENCLANKVDLSFSPSQSLPASHAHLRVTAAPQSVCALRAVDQSVLLMKPDAELSASSVYNLLPEKDLTGFPGPLNDQDDEDCINRHNVYINGITYTPVSSTNEKDMYSFLEDMGLKAFTNSKIRKPKMCPQLEPGLAPGGEEGVEEGGPEEGVEEGGFKEGVEGEPESSGKLRKYFPETWIWDLVVVNSAGVAEVGVTVPDTITEWKAGAFCLSEDAGLGISSTASLRAFQPFFVELTMPYSVIRGEAFTLKATVLNYLPKCIRVSVQLEASPAFLAVPVEKEQAPHCICANGRQTVSWAVTPKSLGNVNFTVSAEALESQELCGTEVPSVPEHGRKDTVIKPLLVEPEGLEKETTFNSLLCPSGGEVSEELSLKLPPNVVEESARASVSVLGDILGSAMQNTQNLLQMPYGCGEQNMVLFAPNIYVLDYLNETQQLTPEIKSKAIGYLNTGYQRQLNYKHYDGSYSTFGERYGRNQGNTWLTAFVLKTFAQARAYIFIDEAHITQALIWLSQRQKDNGCFRSSGSLLNNAIKGGVEDEVTLSAYITIALLEIPLTVTHPVVRNALFCLESAWKTAQEGDHGSHVYTKALLAYAFALAGNQDKRKEVLKSLNEEAVKKDNSVHWERPQKPKAPVGHFYEPQAPSAEVEMTSYVLLAYLTAQPAPTSEDLTSATNIVKWITKQQNAQGGFSSTQDTVVALHALSKYGAATFTRTGKAAQVTIQSSGTFSSKFQVDNNNRLLLQQVSLPELPGEYSMKVTGEGCVYLQTSLKYNILPEKEEFPFALGVQTLPQTCDEPKAHTSFQISLSVSYTGSRSASNMAIVDVKMVSGFIPLKPTVKMLERSNHVSRTEVSSNHVLIYLDKVSNQTLSLFFTVLQDVPVRDLKPAIVKVYDYYETDEFAIAEYNAPCSKDLGNADYKDDDDKGASHHHHHH

Protease Inhibition (% of WT) (ADAMTS4): 105 % of WT
Protease Inhibition (% of WT) (ADAMTS5): 89 % of WT
Protease Inhibition (% of WT) (MMP13): 113 % of WT
B3: Variant A2M, bait region SEQ ID NO 111 (other)
chain: SVSGKPQYMVLVPSLLHTETTEKGCVLLSYLNETVTVSASLESVRGNRSLFTDLEAENDVLHCVAFAVPKSSSNEEVMFLTVQVKGPTQEFKKRTTVMVKNEDSLVFVQTDKSIYKPGQTVKFRVVSMDENFHPLNELIPLVYIQDPKGNRIAQWQSFQLEGGLKQFSFPLSSEPFQGSYKVVVQKKSGGRTEHPFTVEEFVLPKFEVQVTVPKIITILEEEMNVSVCGLYTYGKPVPGHVTVSICRKYSDASDCHGEDSQAFCEKFSGQLNSHGCFYQQVKTKVFQLKRKEYEMKLHTEAQIQEEGTVVELTGRQSSEITRTITKLSFVKVDSHFRQGIPFFGQVRLVDGKGVPIPNKVIFIRGNEANYYSNATTDEHGLVQFSINTTNVMGTSLTVRVNYKDRSPCYGYQWVSEEHEEAHHTAYLVFSPSKSFVHLEPMSHELPCGHTQTVQAHYILNGGTLLGLKKLSFYYLIMAKGGIVRTGTHGLLVKQEDMKGHFSISIPVKSDIAPVARLLIYAVLPTGDVIGDSAKYDVENCLANKVDLSFSPSQSLPASHAHLRVTAAPQSVCALRAVDQSVLLMKPDAELSASSVYNLLPEKDLTGFPGPLNDQDDEDCINRHNVYINGITYTPVSSTNEKDMYSFLEDMGLKAFTNSKIRKPKMCPQLEARGLEGGGGGSLLGGYPGSSRGGFKEGVEGGPAGAARGKLRKYFPETWIWDLVVVNSAGVAEVGVTVPDTITEWKAGAFCLSEDAGLGISSTASLRAFQPFFVELTMPYSVIRGEAFTLKATVLNYLPKCIRVSVQLEASPAFLAVPVEKEQAPHCICANGRQTVSWAVTPKSLGNVNFTVSAEALESQELCGTEVPSVPEHGRKDTVIKPLLVEPEGLEKETTFNSLLCPSGGEVSEELSLKLPPNVVEESARASVSVLGDILGSAMQNTQNLLQMPYGCGEQNMVLFAPNIYVLDYLNETQQLTPEIKSKAIGYLNTGYQRQLNYKHYDGSYSTFGERYGRNQGNTWLTAFVLKTFAQARAYIFIDEAHITQALIWLSQRQKDNGCFRSSGSLLNNAIKGGVEDEVTLSAYITIALLEIPLTVTHPVVRNALFCLESAWKTAQEGDHGSHVYTKALLAYAFALAGNQDKRKEVLKSLNEEAVKKDNSVHWERPQKPKAPVGHFYEPQAPSAEVEMTSYVLLAYLTAQPAPTSEDLTSATNIVKWITKQQNAQGGFSSTQDTVVALHALSKYGAATFTRTGKAAQVTIQSSGTFSSKFQVDNNNRLLLQQVSLPELPGEYSMKVTGEGCVYLQTSLKYNILPEKEEFPFALGVQTLPQTCDEPKAHTSFQISLSVSYTGSRSASNMAIVDVKMVSGFIPLKPTVKMLERSNHVSRTEVSSNHVLIYLDKVSNQTLSLFFTVLQDVPVRDLKPAIVKVYDYYETDEFAIAEYNAPCSKDLGNADYKDDDDKGASHHHHHH

— patent US20230250154A1 (CYTONICS, published 2023)
